The nature of data set [1]: SAW (30 MHz) perfusion of FITC-Albumin and Fluorescein in pig lip tissue (Example Three). Format: in vitro ADME. The conditions noted are these: for perfusion into pig lip tissue with SAW: SAW 30 MHz, different exposure times and powers; for passive diffusion into pig lip tissue (control sample): no SAW. The source says: In this set of experiments, the effect of surface acoustic wave (SAW) at 30 MHz on FITC-Albumin and Fluorescein perfusion for different SAW powers and operating time was investigated.
Fluorescein sodium salt and FITC-Albumin were purchased from Sigma-Aldrich, Australia. Fresh porcine lips were obtained from diamond valley pork abattoir (Laverton, Melbourne) prior to the experiments. Surface acoustic wave (SAW) chip patterning of Chromium and Aluminum interdigital transducers (IDT) were fabricated using standard lithographic techniques at Micro Nano Research Facility (MNRF), RMIT University.
The lips were wrapped in sterile gauze saturated in Krebs buffer during transportation to maintain the viability of the tissues. […] The porcine lips were exposed to various molecules with and without the surface acoustic waves (SAW). The lips were washed immediately after the experiments to get rid of any reminent targeting molecules.
Samples were wrapped in aluminium foil and stored at −80 degree until dermatomed. The tissues were dermatomed in a cryostat at a thickness of 50-micron layer until 1 mm for extensive penetration studies.
Tissue sectioning was performed at RMIT Bundoora and Melbourne University campuses. Fluorescent images of the samples were obtained using optical microscope (×10 lens), consistent light exposure of 600 ms. Acquired images were then quantified using ImageJ software to calculate the normalized pixel intensity of the green channel.
The model drug (FITC-albumin and fluorescein) used was placed directly on the device throughout the experiments. Fresh lips were approximately dissected into a 1 cm*1 cm cube and was placed on the drug. No coupling agent or loading substrate was used to transmit the vibrations from device into tissues. The inter-digital electrodes (IDTs) patterned on the lithium niobate (piezoelectric substrate) generated surface waves (SAW), which in turn drives the model drugs into the tissues. (FIG. 12)

For data set [2] the following is noted: rat, in vivo.
Procedure: All experiments were conducted in accordance with the ARVO Statement for Use of Animals in Ophthalmic and Vision Research and with approval from the ANU Animal Experimentation Ethics Committee (Ethics ID: A2014/56). Adult Wistar rats were utilised in all experiments, which were born and reared under normal lighting conditions (˜5 lux light) and aged between 90 and 120 post-natal days at the time of use. Wistar rats were anaesthetised with an intraperitoneal injection of ketamine (100 mg/kg; Troy Laboratories, NSW, Australia) and Xylazil (12 mg/kg; Troy Laboratories). Once anaesthetised, Systane eye drops (Alcon, TX, USA) were applied every 2 minutes to maintain corneal lubrication. Animals were placed on a heat blanket to maintain body temperature at 37° C. and a cotton eye loop was applied around the eye to expose the anterior surface.
The inventors' HFB device (with A.A Lab Systems A-301 HS HV amplifier and RIGOL DG4062 Function/Arbitrary Waveform Generator) was loaded with 0.2% Riboflavin-5-phosphate-sodium (Riboflavin-5-phosphate-sodium-5-phosphate sodium #30-1598-25GM; PCCA, TX, USA), made up in sterile saline (0.9% NaCl), and applied to the centre of the cornea for 5 minutes. The settings on the device were as follows: transducer—1.6 MHz; amplifier—DC offset=off position; waveform generator—60 KHz sine waveform. The device was run for 5 minutes at 0, 3, 11 or 13 voltage peak to peak (VPP). […] Therefore, an electric circuit between the device and the eye tissue was not created.
Following delivery, the residual Riboflavin-5-phosphate-sodium was washed from the eye with normal saline. The animal was euthanized, the eyes removed and the eyes fixed in 4% paraformaldehyde for 5 minutes before being cryopreserved and immediately sectioned at 16 μm thickness.
Sections were visualised under a Nikon A1 confocal microscope using the green 488 channel and imaged using the 10× objective. Data analysis for quantification was performed with an n=3 with 8 regions per section, with the gain of the laser set to optimal fluorescence for the brightest section (gain setting 110) and maintained for all imaging.
The conditions of data set [3]: for SAW samples pixel intensity: SAW approximately 4V; for SAW samples pixel intensity / Control samples pixel intensity: 5 s exposure, 30 μg/ml; for Control samples pixel intensity: no acoustic waves (0 mV). Here is the method: The SAW device 10 illustrated in FIG. 1 was used to controllably deliver albumin-fluorescein isothiocyanate (FITC-albumin) across epithelial membranes of pig lips. Fresh lips tissues from pigs were obtained from a slaughterhouse. The experiments were conducted within 2 hours after the animals were sacrificed. The porcine lips were exposed to FITC-albumin molecules with and without the acoustic waves. The exposure time was 5 s for both control and SAW experiments. The power or voltage was maintained at 0 mV (no voltage) for control, and approximately 4V for SAW experiments. The concentration and the amount of FITC-Albumin (30 μg/ml) used was maintained constant throughout the penetration depth study.
The fresh tissues were further snap frozen in isopentane chilled by liquid nitrogen with the aid of optimal cutting temperature compound (OCT) as the embedding medium. Samples were further wrapped in aluminium foil and stored at −80° C. until sectioned by a dermatome. The tissues were sectioned by a dermatome in a cryostat to create samples of contiguous layers of tissue of 50 μm thickness.
Fluorescent images of the samples were obtained and quantified using Image J software to calculate the normalised pixel intensity of the green channel.

Counter-ions that a name gives are not always drawn. Like-named read-outs stand apart in the source and are kept apart here.

Take `O=C1OC2(c3ccc(O)cc3Oc3cc(O)ccc32)c2ccccc21` [Fluorescein, Fluorescein sodium salt]: in data set [1], the “perfusion into pig lip tissue with SAW” value is “showed an improvement, especially for longer exposure time” and the “passive diffusion into pig lip tissue (control sample)” value was “prevalent”.

With `Cc1cc2nc3c(=O)[nH]c(=O)nc-3n(C[C@H](O)[C@H](O)[C@H](O)COP(=O)([O-])O)c2cc1C.[Na+]` [Riboflavin-5-phosphate-sodium], in data set [2], the “concentrations in posterior iris, ciliary body and choroid” value is recorded as “significant concentrations”; the “delivery to the posterior segment of the eye” value is reported as “concentrated in the uveal tract”; the “fluorescence in anterior chamber and vitreous” value is “did not show any fluorescence”; the “increase in average relative fluorescence intensity (RFI), treated versus control cornea” value is recorded as around 4 times.

On to “albumin-fluorescein isothiocyanate [FITC-albumin]”, for which the “perfusion into pig lip tissue with SAW” value in data set [1] is listed as “outstanding perfusion compared to passive diffusion”. Moreover, the “passive diffusion into pig lip tissue (control sample)” value in data set [1] is reported as “hardly any diffusion”. Besides, the “depth of delivery across the epithelial layers of the pig lips” value in data set [3] (SAW device, 5 s, tissue deeper than 500 μm not examined) is reported as 500 μm. Also, the “diffusion through the layers of the pig lips” value in data set [3] (control, no acoustic waves, 5 s) was “diffused evenly and uniformly through the layers of the pig lips”. Also, the “SAW samples pixel intensity” value in data set [3] (layer 100 μm) is reported as 37.192; in data set [3] (layer 150 μm), 19.733; in data set [3] (layer 200 μm), 19.835; in data set [3] (layer 250 μm) it was 14.041; in data set [3] (layer 300 μm) it was 11.229; in data set [3] (layer 350 μm) it was 16.047. Also, the “SAW samples pixel intensity” value is 12.274 in data set [3] (layer 400 μm), 9.935 in data set [3] (layer 450 μm) and 9.958 in data set [3] (layer 500 μm). The “Control samples pixel intensity” value in data set [3] (layer 100 μm) is given as 7.52; in data set [3] (layer 150 μm) it was 7.421; in data set [3] (layer 200 μm), 6.617; in data set [3] (layer 250 μm), 6.126; in data set [3] (layer 300 μm), 7.488; in data set [3] (layer 350 μm), 7.405. Moreover, the “Control samples pixel intensity” value in data set [3] (layer 400 μm) stood at 7.589; in data set [3] (layer 450 μm) it was 6.886; in data set [3] (layer 500 μm), 7.715.

Values taken from US20200324099A1, “ACOUSTIC WAVE MEDIATED NON-INVASIVE DRUG DELIVERY” (Mupharma Pty Ltd, priority 2016, published 2020).
